Legend:
[1] = target: FGFR3 (UniProt P22607); test: phosphorylation enrichment, bacterial display (enrichment ratio); higher = better substrate or ligand; peptides without Tyr show the background
[2] = target: Hck (UniProt P08631); test: as above
[3] = system: AncSZ; test: as above
[4] = target: Fes (UniProt P07332); test: as above
[5] = target: MERTK (UniProt Q12866); test: as above
[6] = target: Fyn (UniProt P06241); test: as above
[7] = system: c-Abl (mouse); test: as above
[8] = system: c-Src; test: as above
[9] = target: Jak2 (UniProt O60674); test: as above
Sequence of Jak2 (O60674 whole entry, looked up): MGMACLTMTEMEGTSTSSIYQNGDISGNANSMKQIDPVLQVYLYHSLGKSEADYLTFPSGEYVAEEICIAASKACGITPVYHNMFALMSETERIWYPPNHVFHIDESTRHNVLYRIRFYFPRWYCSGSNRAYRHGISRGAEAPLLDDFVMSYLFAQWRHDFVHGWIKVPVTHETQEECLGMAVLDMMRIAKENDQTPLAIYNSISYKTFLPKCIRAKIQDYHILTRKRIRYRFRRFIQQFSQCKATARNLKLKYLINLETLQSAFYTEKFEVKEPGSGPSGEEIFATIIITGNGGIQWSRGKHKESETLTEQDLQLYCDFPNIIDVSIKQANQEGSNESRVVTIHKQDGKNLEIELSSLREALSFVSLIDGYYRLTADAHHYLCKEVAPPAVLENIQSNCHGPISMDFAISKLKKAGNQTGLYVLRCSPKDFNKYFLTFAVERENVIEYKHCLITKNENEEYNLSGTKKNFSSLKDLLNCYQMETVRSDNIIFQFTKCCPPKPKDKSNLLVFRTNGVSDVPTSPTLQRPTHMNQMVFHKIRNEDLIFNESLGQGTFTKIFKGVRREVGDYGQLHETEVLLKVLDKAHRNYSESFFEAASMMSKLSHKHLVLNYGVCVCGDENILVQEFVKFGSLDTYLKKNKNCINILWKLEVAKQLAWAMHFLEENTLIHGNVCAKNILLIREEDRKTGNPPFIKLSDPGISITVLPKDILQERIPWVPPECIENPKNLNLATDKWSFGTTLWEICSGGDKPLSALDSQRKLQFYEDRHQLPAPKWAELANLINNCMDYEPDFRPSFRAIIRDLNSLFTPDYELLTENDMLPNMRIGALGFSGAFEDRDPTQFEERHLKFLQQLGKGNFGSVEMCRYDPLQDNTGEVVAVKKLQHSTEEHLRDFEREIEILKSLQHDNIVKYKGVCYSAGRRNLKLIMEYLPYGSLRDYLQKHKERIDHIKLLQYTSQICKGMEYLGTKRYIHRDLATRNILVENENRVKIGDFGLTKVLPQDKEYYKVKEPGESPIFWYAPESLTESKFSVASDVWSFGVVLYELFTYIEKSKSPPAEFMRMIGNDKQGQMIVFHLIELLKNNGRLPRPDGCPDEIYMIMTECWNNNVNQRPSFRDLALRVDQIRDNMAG

[10] = target: EPHB2 (UniProt P29323); test: as above
Sequence of EPHB2 (P29323 whole entry, looked up): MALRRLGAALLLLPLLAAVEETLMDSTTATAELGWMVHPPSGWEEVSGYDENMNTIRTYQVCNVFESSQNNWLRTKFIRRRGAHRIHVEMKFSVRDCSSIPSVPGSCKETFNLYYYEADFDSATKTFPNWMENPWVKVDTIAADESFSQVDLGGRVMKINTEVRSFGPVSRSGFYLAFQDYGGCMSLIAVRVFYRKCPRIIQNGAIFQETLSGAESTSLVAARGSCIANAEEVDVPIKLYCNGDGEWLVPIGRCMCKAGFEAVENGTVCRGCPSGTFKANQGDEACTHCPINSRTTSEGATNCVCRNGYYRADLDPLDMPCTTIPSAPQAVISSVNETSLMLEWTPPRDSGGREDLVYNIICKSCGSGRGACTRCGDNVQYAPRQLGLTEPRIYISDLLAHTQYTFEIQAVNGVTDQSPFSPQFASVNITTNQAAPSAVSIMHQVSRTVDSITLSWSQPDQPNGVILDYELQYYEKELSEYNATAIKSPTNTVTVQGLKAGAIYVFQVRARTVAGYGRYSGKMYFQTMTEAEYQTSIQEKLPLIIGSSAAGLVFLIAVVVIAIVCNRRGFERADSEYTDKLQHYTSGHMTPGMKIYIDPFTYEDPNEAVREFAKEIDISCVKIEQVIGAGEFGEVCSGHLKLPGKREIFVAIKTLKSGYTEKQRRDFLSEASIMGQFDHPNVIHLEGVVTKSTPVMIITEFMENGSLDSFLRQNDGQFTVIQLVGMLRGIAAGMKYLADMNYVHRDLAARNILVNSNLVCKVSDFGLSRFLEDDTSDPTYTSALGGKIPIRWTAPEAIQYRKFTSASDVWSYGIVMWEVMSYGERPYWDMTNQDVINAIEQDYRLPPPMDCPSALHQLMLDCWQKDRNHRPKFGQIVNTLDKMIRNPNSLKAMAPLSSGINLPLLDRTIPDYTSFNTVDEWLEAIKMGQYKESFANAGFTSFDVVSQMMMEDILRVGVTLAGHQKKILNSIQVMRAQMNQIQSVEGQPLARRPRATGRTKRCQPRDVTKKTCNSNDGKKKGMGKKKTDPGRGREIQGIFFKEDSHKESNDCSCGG

[11] = system: Fer (mouse); test: as above
[12] = target: FGFR1 (UniProt P11362); test: as above
Sequence of FGFR1 (P11362 whole entry, looked up): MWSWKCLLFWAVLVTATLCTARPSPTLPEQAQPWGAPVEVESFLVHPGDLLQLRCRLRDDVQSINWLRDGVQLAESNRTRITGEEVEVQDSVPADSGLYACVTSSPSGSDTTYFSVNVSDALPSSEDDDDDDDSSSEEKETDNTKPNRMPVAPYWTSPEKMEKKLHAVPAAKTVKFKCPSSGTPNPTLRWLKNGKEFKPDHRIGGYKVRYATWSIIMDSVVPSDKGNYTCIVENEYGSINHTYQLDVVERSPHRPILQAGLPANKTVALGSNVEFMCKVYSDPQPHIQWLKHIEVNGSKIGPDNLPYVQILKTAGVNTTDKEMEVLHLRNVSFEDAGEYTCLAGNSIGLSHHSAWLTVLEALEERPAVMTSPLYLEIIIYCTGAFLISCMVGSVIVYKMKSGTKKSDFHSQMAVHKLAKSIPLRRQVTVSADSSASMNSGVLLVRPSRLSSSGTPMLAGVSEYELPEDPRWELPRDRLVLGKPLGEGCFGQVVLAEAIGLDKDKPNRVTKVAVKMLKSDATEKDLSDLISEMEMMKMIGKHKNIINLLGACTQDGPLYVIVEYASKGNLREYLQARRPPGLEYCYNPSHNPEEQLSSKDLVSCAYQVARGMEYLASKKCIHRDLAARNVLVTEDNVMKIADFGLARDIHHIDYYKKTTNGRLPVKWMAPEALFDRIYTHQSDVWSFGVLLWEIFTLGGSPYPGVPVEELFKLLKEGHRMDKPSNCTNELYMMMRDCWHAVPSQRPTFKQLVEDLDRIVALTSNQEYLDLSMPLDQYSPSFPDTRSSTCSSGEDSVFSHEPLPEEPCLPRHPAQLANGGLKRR

[13] = target: EPHB1 (UniProt P54762); test: as above
[14] = target: SHP2-C SH2; test: SH2 binding enrichment of the phosphorylated peptide, bacterial display (enrichment ratio); higher = better substrate or ligand; peptides without Tyr show the background
[15] = target: c-Src SH2; test: as above
[16] = target: Grb2 SH2 (UniProt P62993); test: as above
Sequence of Grb2 SH2 (P62993 whole entry, looked up, the tested form may be a part): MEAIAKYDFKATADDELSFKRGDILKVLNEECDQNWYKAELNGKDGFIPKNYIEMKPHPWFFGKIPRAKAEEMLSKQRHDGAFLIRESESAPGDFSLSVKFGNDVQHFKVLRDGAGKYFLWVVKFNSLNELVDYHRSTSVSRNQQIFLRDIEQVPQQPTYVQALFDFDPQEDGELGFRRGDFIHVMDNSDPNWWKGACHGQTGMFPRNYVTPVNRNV
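Wherever SH2 binding enrichment of the phosphorylated peptide, bacterial display is given: peptide library displayed on the E. coli surface as eCPX fusions, selected cells deep-sequenced, score is each peptide's frequency after selection divided by its frequency in the input.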
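Wherever phosphorylation enrichment, bacterial display is given: 11-residue human phosphosite peptides and single-mutation variants displayed on the E. coli surface, counted by deep sequencing, each peptide's frequency after selection divided by its frequency in the unselected input library; frequency after pTyr selection over input frequency; kinase dosed for 20-30% of maximal phosphorylation in three min.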

Sequence of FGFR3 (P22607 whole entry, looked up): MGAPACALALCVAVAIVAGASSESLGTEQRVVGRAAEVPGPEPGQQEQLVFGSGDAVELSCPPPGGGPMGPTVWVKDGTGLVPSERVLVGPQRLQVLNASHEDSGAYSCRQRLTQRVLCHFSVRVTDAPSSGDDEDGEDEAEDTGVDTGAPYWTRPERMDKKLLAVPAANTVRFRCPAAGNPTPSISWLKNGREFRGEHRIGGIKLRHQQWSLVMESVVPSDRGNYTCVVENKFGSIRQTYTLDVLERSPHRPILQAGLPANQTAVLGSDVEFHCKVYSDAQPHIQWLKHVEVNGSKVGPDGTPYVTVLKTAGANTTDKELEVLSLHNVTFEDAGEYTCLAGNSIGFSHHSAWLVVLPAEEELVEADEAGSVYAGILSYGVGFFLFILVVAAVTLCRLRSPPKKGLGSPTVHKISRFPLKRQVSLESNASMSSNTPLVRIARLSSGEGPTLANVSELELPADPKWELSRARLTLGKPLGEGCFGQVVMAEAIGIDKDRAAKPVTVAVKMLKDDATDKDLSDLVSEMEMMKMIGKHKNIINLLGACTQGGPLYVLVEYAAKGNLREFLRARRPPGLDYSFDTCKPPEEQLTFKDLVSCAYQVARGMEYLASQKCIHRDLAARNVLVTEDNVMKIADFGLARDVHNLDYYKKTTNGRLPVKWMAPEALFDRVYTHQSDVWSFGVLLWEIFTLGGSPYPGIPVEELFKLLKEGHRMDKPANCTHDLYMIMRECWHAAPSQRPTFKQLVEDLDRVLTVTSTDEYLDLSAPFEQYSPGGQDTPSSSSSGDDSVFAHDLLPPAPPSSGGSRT
Sequence of Fes (P07332 whole entry, looked up): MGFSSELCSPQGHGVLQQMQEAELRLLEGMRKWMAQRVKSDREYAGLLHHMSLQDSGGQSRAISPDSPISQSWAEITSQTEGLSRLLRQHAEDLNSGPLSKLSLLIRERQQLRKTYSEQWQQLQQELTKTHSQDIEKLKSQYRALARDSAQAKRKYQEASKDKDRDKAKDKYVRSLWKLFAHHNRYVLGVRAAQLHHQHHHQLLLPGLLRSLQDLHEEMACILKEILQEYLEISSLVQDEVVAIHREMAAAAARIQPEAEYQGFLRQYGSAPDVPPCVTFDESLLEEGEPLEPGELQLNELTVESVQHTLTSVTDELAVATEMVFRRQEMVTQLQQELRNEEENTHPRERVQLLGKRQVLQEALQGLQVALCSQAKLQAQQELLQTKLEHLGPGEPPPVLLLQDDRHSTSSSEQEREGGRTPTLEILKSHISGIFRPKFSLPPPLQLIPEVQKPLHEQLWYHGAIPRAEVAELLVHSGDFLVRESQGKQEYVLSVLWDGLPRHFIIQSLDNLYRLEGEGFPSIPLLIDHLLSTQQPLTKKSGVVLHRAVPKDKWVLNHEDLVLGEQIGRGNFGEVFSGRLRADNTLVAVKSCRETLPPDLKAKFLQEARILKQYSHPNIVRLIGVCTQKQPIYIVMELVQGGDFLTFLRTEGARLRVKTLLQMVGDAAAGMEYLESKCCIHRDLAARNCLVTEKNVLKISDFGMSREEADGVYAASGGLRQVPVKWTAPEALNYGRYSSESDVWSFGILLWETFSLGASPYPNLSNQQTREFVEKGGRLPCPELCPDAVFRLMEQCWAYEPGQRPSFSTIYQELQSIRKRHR

| Sequence | phosphorylation enrichment [1] | phosphorylation enrichment [2] | phosphorylation enrichment [3] | phosphorylation enrichment [4] | phosphorylation enrichment [5] | phosphorylation enrichment [6] | phosphorylation enrichment [7] | phosphorylation enrichment [8] | phosphorylation enrichment [9] | phosphorylation enrichment [10] | phosphorylation enrichment [11] | phosphorylation enrichment [12] | phosphorylation enrichment [13] | SH2 binding enrichment [14] | SH2 binding enrichment [15] | SH2 binding enrichment [16] |
| --- | --- | --- | --- | --- | --- | --- | --- | --- | --- | --- | --- | --- | --- | --- | --- | --- |
| PNRILYRDFRQ [MYH7_Y715_G716R] | 0.573 | 0.452 | 0.633 | 0.778 | 0.574 | 0.307 | 0.74 | 0.485 | 0.79 | 0.615 | 0.373 | 0.472 | 0.544 | 0.676 | 0.557 | 0.847 |
| CDIPRYIVSQL [MAST2_Y461] | 0.618 | 0.482 | 1.04 | 1.02 | 0.501 | 0.506 | 0.816 | 0.442 | 1.04 | 0.577 | 0.454 | 0.497 | 0.535 | 0.654 | 0.406 | 0.744 |
| HTEGEYSSLEH [IDH3B_Y171_Q166H] | 0.785 | 1.24 | 1.85 | 1.09 | 0.764 | 1.46 | 0.97 | 1.02 | 0.828 | 1.28 | 0.791 | 0.793 | 1.44 | 0.862 | 0.9 | 0.808 |
| MKNDLYQTPLH [NFKB1_Y582_R578K] | 0.502 | 4.13 | 1.4 | 0.695 | 1.81 | 1.16 | 5.91 | 1.63 | 0.727 | 1.11 | 2.2 | 0.473 | 0.668 | 0.604 | 0.585 | 0.774 |
| PHQTIYGALMI [FGF23_Y70_S71G] | 0.838 | 7.87 | 0.849 | 1.07 | 0.796 | 10.6 | 1.36 | 5.96 | 0.721 | 0.711 | 3.41 | 0.57 | 0.679 | 0.599 | 0.341 | 0.75 |
| GSESDYIIMPN [SCARB1_Y133_V135I] | 3.91 | 0.526 | 2.88 | 0.826 | 0.551 | 0.456 | 0.466 | 0.6 | 0.919 | 6.96 | 0.411 | 5.65 | 6.96 | 0.873 | 0.431 | 0.762 |
| EIELAYRRRPP [GRIN2B_Y1109] | 0.455 | 0.433 | 0.661 | 0.587 | 0.385 | 0.45 | 0.437 | 0.353 | 0.556 | 0.451 | 0.458 | 0.41 | 0.448 | 0.569 | 0.387 | 0.642 |
| PMFTKYGNGLL [RPGRIP1L_Y196_S199G] | 0.668 | 0.534 | 1.28 | 1.1 | 0.518 | 0.494 | 1.31 | 0.79 | 1.09 | 0.525 | 0.71 | 0.496 | 0.762 | 0.474 | 0.421 | 0.724 |
| AESPEHVHMYT [FAM111A_Y511_Y511H] | 0.609 | 0.547 | 0.812 | 0.861 | 0.377 | 0.476 | 0.476 | 0.369 | 0.687 | 0.474 | 0.432 | 0.533 | 0.523 | 0.674 | 0.489 | 0.822 |
| PADCRYFTFPQ [GAMT_Y222_A224T_YF] | 1.09 | 0.761 | 1.1 | 1.53 | 1.66 | 0.61 | 0.944 | 2.58 | 2.88 | 0.483 | 0.68 | 1.2 | 0.613 | 1.78 | 2.07 | 1.33 |
| YAADYYKLLGN [ROR2_Y646] | 9.3 | 0.808 | 1.1 | 0.993 | 1.47 | 0.452 | 0.769 | 0.908 | 4.53 | 0.863 | 0.634 | 12.5 | 0.963 | 0.467 | 0.504 | 0.683 |
| EKKKYYDTKIE [CASP5_Y104] | 0.637 | 0.511 | 0.863 | 1.03 | 0.443 | 0.486 | 0.761 | 0.452 | 0.779 | 0.518 | 0.381 | 0.365 | 0.366 | 0.505 | 0.498 | 0.752 |
| VTHKEYFIFLE [CAMKV_Y95_R92H] | 1.87 | 0.54 | 1.08 | 1.36 | 0.516 | 0.623 | 0.755 | 1.29 | 1.29 | 1.36 | 0.596 | 2.2 | 1.13 | 1.98 | 1.32 | 1.78 |
| LFVDVYGPSVP [NUBPL_Y109_D105Y_YF] | 0.709 | 1.5 | 1.23 | 1.34 | 0.355 | 1.16 | 0.717 | 1.47 | 1.17 | 0.545 | 0.748 | 0.482 | 0.576 | 0.684 | 0.42 | 0.921 |
| RFVSRYIFNRE [HLA-DQB1_Y62_T60S_YF] | 0.934 | 0.79 | 1.86 | 1.46 | 0.994 | 1.05 | 0.867 | 0.916 | 2.14 | 0.744 | 0.976 | 0.852 | 1.13 | 1.2 | 0.499 | 0.733 |
| TNIKRYHIAKV [HARS1_Y150] | 0.328 | 0.264 | 0.408 | 0.553 | 0.358 | 0.379 | 0.375 | 0.348 | 0.43 | 0.322 | 0.278 | 0.301 | 0.301 | 0.986 | 0.81 | 0.967 |
